Measured values from the supplement of paper PMC11246515.
± gives the standard deviation of the averaged measurements.

Assay: total protein half-life in vivo (active degradation + dilution); higher = more stable protein
[1] = E. coli NCM3722 delta-clpP delta-lon delta-hslV, growth: N-lim chemostat, doubling time 6 h
[2] = E. coli NCM3722 delta-clpP, growth: N-lim chemostat, doubling time 6 h
[3] = E. coli NCM3722 delta-hslV, growth: N-lim chemostat, doubling time 6 h
[4] = E. coli NCM3722 delta-lon, growth: N-lim chemostat, doubling time 6 h
[5] = E. coli NCM3722 delta-smpB, growth: N-lim chemostat, doubling time 6 h
[6] = wild type E. coli NCM3722, growth: C-lim chemostat, doubling time 3 h
[7] = wild type E. coli NCM3722, growth: N-lim chemostat, doubling time 6 h
[8] = wild type E. coli NCM3722, growth: N-lim chemostat, doubling time 12 h
[9] = wild type E. coli NCM3722, growth: P-lim chemostat, doubling time 6 h
[10] = wild type E. coli NCM3722, growth: P-lim chemostat, doubling time 12 h
[11] = wild type E. coli NCM3722, growth: C-lim chemostat, doubling time 6 h
[12] = wild type E. coli NCM3722, growth: C-lim chemostat, doubling time 12 h

Sequence | total protein half-life in vivo [1] [h] | total protein half-life in vivo [2] [h] | total protein half-life in vivo [3] [h] | total protein half-life in vivo [4] [h] | total protein half-life in vivo [5] [h] | total protein half-life in vivo [6] [h] | total protein half-life in vivo [7] [h] | total protein half-life in vivo [8] [h] | total protein half-life in vivo [9] [h] | total protein half-life in vivo [10] [h] | total protein half-life in vivo [11] [h] | total protein half-life in vivo [12] [h]
MQKAQRIIKTYRRNRMIVCTICALVTLASTLSVRFISQRNLNQQRVVQFANHAVEELDKVLLPLQAGSEVLLPLIGLPCSVAHLPLRKQAAKLQTVRSIGLVQDGTLYCSSIFGYRNVPVVDILAELPAPQPLLRLTIDRALIKGSPVLIQWTPAAGSSNAGVMEMINIDLLTAMLLEPQLPQISSASLTVDKRHLLYGNGLVDSLPQPEDNENYQVSSQRFPFTINVNGPGATALAWHYLPTQLPLAVLLSLLVGYIAWLATAYRMSFSREINLGLAQHEFELFCQPLLNARSQQCIGVEILLRWNNPRQGWISPDVFIPIAEEHHLIVPLTRYVMAETIRQRHVFPMSSQFHVGINVAPSHFRRGVLIKDLNQYWFSAHPIQQLILEITERDALLDVDYRIARELHRKNVKLAIDDFGTGNSSFSWLETLRPDVLKIDKSFTAAIGSDAVNSTVTDIIIALGQRLNIELVAEGVETQEQAKYLRRHGVHILQGYLYAQPMPLRDFPKWLAGSQPPPARHNGHITPIMPLR | 4.94 | 2.57 |  |  |  |  |  |  |  |  |  | 
MGHKPLYRQIADRIREQIARGELKPGDALPTESALQTEFGVSRVTVRQALRQLVEQQILESIQGSGTYVKEERVNYDIFQLTSFDEKLSDRHVDTHSEVLIFEVIPADDFLQQQLQITPQDRVWHVKRVRYRKQKPMALEETWMPLALFPDLTWQVMENSKYHFIEEVKKMVIDRSEQEIIPLMPTEEMSRLLNISQTKPILEKVSRGYLVDGRVFEYSRNAFNTDDYKFTLIAQRKSSR | 5.56 ± 0.42 | 5.47 ± 0.059 | 5.26 ± 0.32 | 4.83 ± 0.42 | 4.99 ± 0.07 | 2.985 ± 0.0092 | 5.354 ± 0.041 | 9.53 ± 0.028 | 5.8 ± 0.12 | 12.1 ± 1.1 |  | 
MSKLDTFIQHAVNAVPVSGTSLISSLYGDSLSHRGGEIWLGSLAALLEGLGFGERFVRTALFRLNKEGWLDVSRIGRRSFYSLSDKGLRLTRRAESKIYRAEQPAWDGKWLLLLSEGLDKSTLADVKKQLIWQGFGALAPSLMASPSQKLADVQTLLHEAGVADNVICFEAQIPLALSRAALRARVEECWHLTEQNAMYETFIQSFRPLVPLLKEAADELTPERAFHIQLLLIHFYRRVVLKDPLLPEELLPAHWAGHTARQLCINIYQRVAPAALAFVSEKGETSVGELPAPGSLYFQRFGGLNIEQEALCQFIR |  |  | 4.03 ± 0.075 | 4.2 ± 0.044 | 4.07 ± 0.076 | 2.77 ± 0.17 | 4.07 ± 0.22 | 6.84 ± 0.13 | 4.82 ± 0.088 | 8.96 ± 0.47 | 5.07 ± 0.31 | 8.39 ± 0.13
MKIRSQVGMVLNLDKCIGCHTCSVTCKNVWTSREGVEYAWFNNVETKPGQGFPTDWENQEKYKGGWIRKINGKLQPRMGNRAMLLGKIFANPHLPGIDDYYEPFDFDYQNLHTAPEGSKSQPIARPRSLITGERMAKIEKGPNWEDDLGGEFDKLAKDKNFDNIQKAMYSQFENTFMMYLPRLCEHCLNPACVATCPSGAIYKREEDGIVLIDQDKCRGWRMCITGCPYKKIYFNWKSGKSEKCIFCYPRIEAGQPTVCSETCVGRIRYLGVLLYDADAIERAASTENEKDLYQRQLDVFLDPNDPKVIEQAIKDGIPLSVIEAAQQSPVYKMAMEWKLALPLHPEYRTLPMVWYVPPLSPIQSAADAGELGSNGILPDVESLRIPVQYLANLLTAGDTKPVLRALKRMLAMRHYKRAETVDGKVDTRALEEVGLTEAQAQEMYRYLAIANYEDRFVVPSSHRELAREAFPEKNGCGFTFGDGCHGSDTKFNLFNSRRIDAIDVTSKTEPHP | 5.82 ± 0.15 | 5.37 ± 0.84 | 5.9 ± 0.44 | 5.52 ± 0.8 | 5.81 ± 0.086 |  | 5.29 | 11.3 ± 0.39 | 6 ± 0.39 | 10.8 ± 2.4 | 5.809 ± 0.058 | 12.8
MRVFKTKLIRLQLTAEELDALTADFISYKRDGVLPDIFGRDALYDDSFTWPLIKFERVAHIHLANENNPFPPQLRQFSRTNDEAHLVYCQGAFDEQAWLLIAILKPEPHKLARDNNQMHKIGKMAEAFRMRF | 7.33 |  |  |  |  |  |  |  | > 8 | 12.4 ± 1 |  | 
MQDEYYMARALKLAQRGRFTTHPNPNVGCVIVKDGEIVGEGYHQRAGEPHAEVHALRMAGEKAKGATAYVTLEPCSHHGRTPPCCDALIAAGVARVVASMQDPNPQVAGRGLYRLQQAGIDVSHGLMMSEAEQLNKGFLKRMRTGFPYIQLKLGASLDGRTAMASGESQWITSPQARRDVQLLRAQSHAILTSSATVLADDPALTVRWSELDEQTQALYPQQNLRQPIRIVIDSQNRVTPVHRIVQQPGETWFARTQEDSREWPETVRTLLIPEHKGHLDLVVLMMQLGKQQINSIWVEAGPTLAGALLQAGLVDELIVYIAPKLLGSDARGLCTLPGLEKLADAPQFKFKEIRHVGPDVCLHLVGA | 5.45 ± 0.12 | 4.76 ± 0.62 | 5.07 ± 0.25 | 5.1 ± 0.31 | 4.57 ± 0.21 | 2.9 ± 0.13 | 4.98 ± 0.35 | 8.77 ± 0.11 | 5.904 ± 0.027 | 11.7 ± 0.15 | 6.76 ± 0.081 | 10.1 ± 0.38
MSALNSLPLPVVRLLAFFHEELSERRPGRVPQTVQLWVGCLLVILISMTFEIPFVALSLAVLFYGIQSNAFYTKFVAILFVVATVLEIGSLFLIYKWSYGEPLIRLIIAGPILMGCMFLMRTHRLGLVFFAVAIVAIYGQTFPAMLDYPEVVVRLTLWCIVVGLYPTLLMTLIGVLWFPSRAISQMHQALNDRLDDAISHLTDSLAPLPETRIEREALALQKLNVFCLADDANWRTQNAWWQSCVATVTYIYSTLNRYDPTSFADSQAIIEFRQKLASEINKLQHAVAEGQCWQSDWRISESEAMAARECNLENICQTLLQLGQMDPNTPPTPAAKPPSMAADAFTNPDYMRYAVKTLLACLICYTFYSGVDWEGIHTCMLTCVIVANPNVGSSYQKMVLRFGGAFCGAILALLFTLLVMPWLDNIVELLFVLAPIFLLGAWIATSSERSSYIGTQMVVTFALATLENVFGPVYDLVEIRDRALGIIIGTVVSAVIYTFVWPESEARTLPQKLAGTLGMLSKVMRIPRQQEVTALRTYLQIRIGLHAAFNACEEMCQRVALERQLDSEERALLIERSQTVIRQGRDLLHAWDATWNSAQALDNALQPDRAGQFADALEKYAAGLATALSRSPQITLEETPASQAILPTLLKQEQHVCQLFARLPDWTAPALTPATEQAQGATQ | 5.28 | > 8 |  |  |  | 0.524 |  |  |  |  |  | 
MEGWQRAFVLHSRPWSETSLMLDVFTEESGRVRLVAKGARSKRSTLKGALQPFTPLLLRFGGRGEVKTLRSAEAVSLALPLSGITLYSGLYINELLSRVLEYETRFSELFFDYLHCIQSLAGVTGTPEPALRRFELALLGHLGYGVNFTHCAGSGEPVDDTMTYRYREEKGFIASVVIDNKTFTGRQLKALNAREFPDADTLRAAKRFTRMALKPYLGGKPLKSRELFRQFMPKRTVKTHYE [P0A7H3] |  | 2.812 ± 0.027 |  | > 8 |  | 1.98 |  | 2.87 |  | 4.34 |  | 2.57
